{"source": "patent EP4585618A1", "about": "(Jiangsu Hengrui Pharmaceuticals Co., Ltd., dated 2025)", "binders": {"B1": {"name": "P2 (fully human-derived antibody clone from phage library screening) (antibody, V domains shown)", "VH": "QVQLVQSGAEVKKPGSSVKVSCKASGYTFTSYDISWVRQAPGQGLEWMGGIIPIFGTANYAQKFQGRVTITADESTSTAYMELSSLRSEDTAVYYCTAGIFLATAYWGQGTLVTVSS", "VL": "DIQMTQSPSSMSASVGDRVTISCQASQDINNYLNWYQQRPGQAPKLLIYDASTLETGVPSRFSGSGSGTYFTLTITSLQPADVATYYCQQYENVPITFGQGTRLEIK"}}, "key": {"[1]": {"biological_target": "T1, His-tagged ILT4 protein extracellular domain: ILT4-His (human, UniProt Q8N423 22-460)", "T1 construct": "Expressed in 293 cells; also called human ILT4-His protein", "T1 sequence (Q8N423 other isoform, or with tags, fused parts or gaps limits assumed)": "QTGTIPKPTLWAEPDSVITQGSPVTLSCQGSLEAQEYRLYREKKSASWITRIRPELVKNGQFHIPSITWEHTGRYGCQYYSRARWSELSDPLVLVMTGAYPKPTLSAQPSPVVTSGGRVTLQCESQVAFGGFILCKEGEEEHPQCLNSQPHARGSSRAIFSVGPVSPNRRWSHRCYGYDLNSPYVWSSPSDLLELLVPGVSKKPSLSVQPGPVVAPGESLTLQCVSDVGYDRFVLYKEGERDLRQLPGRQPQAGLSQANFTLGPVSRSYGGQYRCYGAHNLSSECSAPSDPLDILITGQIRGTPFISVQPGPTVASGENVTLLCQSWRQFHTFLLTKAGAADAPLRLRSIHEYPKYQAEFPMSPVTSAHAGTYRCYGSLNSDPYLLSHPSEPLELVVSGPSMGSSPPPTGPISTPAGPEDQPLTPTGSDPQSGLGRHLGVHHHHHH", "assay": "phage ELISA"}, "[2]": {"biological_target": "T2, His-tagged ILT2 protein extracellular domain: ILT2-His (human, UniProt Q8NHL6 24-461)", "T2 construct": "The entry is the whole construct, with the His tag; also called human ILT2 protein", "T2 sequence (Q8NHL6 other isoform, or with tags, fused parts or gaps)": "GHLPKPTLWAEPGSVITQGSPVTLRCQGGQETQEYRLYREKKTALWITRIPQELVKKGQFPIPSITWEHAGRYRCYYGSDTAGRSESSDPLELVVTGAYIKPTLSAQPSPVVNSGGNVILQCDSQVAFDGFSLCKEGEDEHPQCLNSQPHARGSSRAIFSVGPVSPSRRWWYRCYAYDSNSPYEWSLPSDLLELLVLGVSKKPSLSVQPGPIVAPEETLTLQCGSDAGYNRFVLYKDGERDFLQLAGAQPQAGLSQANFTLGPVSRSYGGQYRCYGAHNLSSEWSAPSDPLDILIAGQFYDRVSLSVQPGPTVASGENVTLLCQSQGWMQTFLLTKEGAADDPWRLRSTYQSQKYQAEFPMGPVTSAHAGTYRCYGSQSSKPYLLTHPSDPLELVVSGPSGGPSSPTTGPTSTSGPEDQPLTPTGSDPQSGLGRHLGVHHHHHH", "assay": "phage ELISA"}}}
{"binder": "B1", "values": [{"measurement": "binding result", "setting": "[1]", "result": "binds"}, {"measurement": "binding result", "setting": "[2]", "result": "no binding"}]}
